# Data: IntAct's records for PubMed 18192679
# B1: Huntingtin-associated protein 1 (Homo sapiens), P54257-2 (parent)
# chain: MRPKRLGRCCAGSRLGPGDPAALTCAPSPSASPAPEPSAQPQARGTGQRVGSRATSGSQFLSEARTGARPASEAGAKAGARRPSAFSAIQGDVRSMPDNSDAPWTRFVFQGPFGSRATGRGTGKAAGIWKTPAAYVGRRPGVSGPERAAFIRELEEALCPNLPPPVKKITQEDVKVMLYLLEELLPPVWESVTYGMVLQRERDLNTAARIGQSLVKQNSVLMEENSKLEALLGSAKEEILYLRHQVNLRDELLQLYSDSDEEDEDEEEEEEEKEAEEEQEEEEAEEDLQCAHPCDAPKLISQEALLHQHHCPQLEALQEKLRLLEEENHQLREEASQLDTLEDEEQMLILECVEQFSEASQQMAELSEVLVLRLENYERQQQEVARLQAQVLKLQQRCRMYGAETEKLQKQLASEKEIQMQLQEEETLPGFQETLAEELRTSLRRMISDPVYFMERNYEMPRGDTSSLRYDFRYSEDREQVRGFEAEEGLMLAADIMRGEDFTPAEEFVPQEELGAAKKVPAEEGVMEEAELVSEETEGWEEVELELDEATRMNVVTSALEASGLGPSHLDMNYVLQQLANWQDAHYRRQLRWKMLQKGECPHGALPAASRTSCRSSCR
# Variants of: B1
# Details: with hd_human HTT
row,effect of a mutation on the interaction,Variant
1,increasing interaction,T441M
